# Data reported in US20260258388A1 (REGENTS OF THE UNIVERSITY OF MICHIGAN, published 2026).
# T1: human FcγRIIA (human, UniProt P12318 34-317)
# T1 construct: whole, on cells; also called hFcγRIIA; platelet FcγRIIA
# T1 sequence (looked up): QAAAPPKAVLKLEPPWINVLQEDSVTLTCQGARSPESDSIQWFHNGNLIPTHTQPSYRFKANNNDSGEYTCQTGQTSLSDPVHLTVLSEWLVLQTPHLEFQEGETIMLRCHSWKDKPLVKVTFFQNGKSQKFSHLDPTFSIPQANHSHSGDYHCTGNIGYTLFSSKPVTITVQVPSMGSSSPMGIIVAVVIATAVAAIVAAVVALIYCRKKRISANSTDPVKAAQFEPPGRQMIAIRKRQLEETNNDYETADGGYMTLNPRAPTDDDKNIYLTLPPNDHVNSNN
# B1: scIV.3-IdeS (scFv)
# chain: QVQLVQSGAEVKKPGASVKVSCKASGYTFTNYGMNWVRQAPGQRLEWMGWLNTYTGESWYPDDFKGRVTITRDTSASTAYMELSSLRSEDTAVYYCARGDYGYDDPLDYWGQGTLVTVSSGAGGSGGGGSGGGGSGGGGSDIVMTQSPLSLPVTPGEPASISCRSSKSLLHTNQNTYLHWFLQKPGQSPQLLIYRMSVLASGVPDRFSGSGSGTDFTLKISRVEAEDVGVYYCMQHLEYPLTFGQGTKLEIKRGSSSGLPETGGGSSDSFSANQEIRYSEVTPYHVTSVWTKGVTPPANFTQGEDVFHAPYVANQGWYDITKTFNGKDDLLCGAATAGNMLHWWFDQNKDQIKRYLEEHPEKQKINFNGEQMFDVKEAIDTKNHQLDSKLFEYFKEKAFPYLSTKHLGVFPDHVIDMFINGYRLSLTNHGPTPVKEGSKDPRGGIFDAVFTRGDQSKLLTSRHDFKEKNLKEISDLIKKELTEGKALGLSHTYANVRINHVINLWGADFDSNGNLKAIYVTDSDSNASIGMKKYFVGVNSAGKVAISAKEIKEDNIGAQVLGLFTLSTGQDSWNQTNHHHHHH
# notes: also called IV.3-IdeS conjugate; His-tagged scIV.3-IdeS
# B2: scIV.3 (single-chain variable fragment of IV.3, scIV.3-LPETGG) (scFv)
# scFv: QVQLVQSGAEVKKPGASVKVSCKASGYTFTNYGMNWVRQAPGQRLEWMGWLNTYTGESWYPDDFKGRVTITRDTSASTAYMELSSLRSEDTAVYYCARGDYGYDDPLDYWGQGTLVTVSSGAGGSGGGGSGGGGSGGGGSDIVMTQSPLSLPVTPGEPASISCRSSKSLLHTNQNTYLHWFLQKPGQSPQLLIYRMSVLASGVPDRFSGSGSGTDFTLKISRVEAEDVGVYYCMQHLEYPLTFGQGTKLEIKRGSSSGLPETGGGHHHHHH
# notes: also called His-tagged scIV.3; IV.3 scFv
# B3: scIV.3-LPETGG-FAM (scFv)
# scFv: QVQLVQSGAEVKKPGASVKVSCKASGYTFTNYGMNWVRQAPGQRLEWMGWLNTYTGESWYPDDFKGRVTITRDTSASTAYMELSSLRSEDTAVYYCARGDYGYDDPLDYWGQGTLVTVSSGAGGSGGGGSGGGGSGGGGSDIVMTQSPLSLPVTPGEPASISCRSSKSLLHTNQNTYLHWFLQKPGQSPQLLIYRMSVLASGVPDRFSGSGSGTDFTLKISRVEAEDVGVYYCMQHLEYPLTFGQGTKLEIKR
# modifications: FAM-containing peptide attached site-specifically to the C-terminal sortag (LPET) by sortase
# notes: Single chain variable fragment of monoclonal antibody IV.3, C-terminally modified with a FAM peptide by sortase; also called scIV.3-FAM; FAM-conjugated scIV.3; not shown: short semi-rigid linker, sortag LPET and the FAM-containing peptide joined by sortase
# Legend:
# [1] = molecular target: Ly76 (Ter119 antigen) on mouse red blood cells (mouse); assay: binding assay using mouse RBC ghosts
# [2] = molecular target: Ly76 (Ter119 antigen) on mouse red blood cells (mouse); assay: cell-based or functional assay
# [3] = molecular target: Ly76 (Ter119 antigen) on mouse red blood cells (mouse); assay: binding assay on mouse RBCs
# [4] = molecular target: Ly76 (Ter119 antigen) on mouse red blood cells (mouse); assay: 125I-labelled protein injected in mice; radioactivity in RBC pellet vs plasma 1 hour after injection
# human FcγRIIA [5] = molecular target: T1, human FcγRIIA; assay: flow cytometry, human platelets, His-tagged protein detected with Alexa 488 anti-His antibody
# human FcγRIIA [6] = molecular target: T1, human FcγRIIA; assay: flow cytometry, THP-1 cells
# human FcγRIIA [7] = molecular target: T1, human FcγRIIA; assay: flow cytometry, human platelets
# human FcγRIIA [8] = molecular target: T1, human FcγRIIA; assay: flow cytometry, washed platelets of transgenic mice expressing human FcγRIIA
molecule,measurement,setting,value
Ter119 scFv,Kd,[1],30 nM
Ter119 scFv-IdeS fusion protein,inhibition of agglutination of mouse RBCs loaded with Ter119 mAb,[2],1.25 nM
same,Kd,[3],25 nM
same,Kd,[1],26 nM
same,percent bound to RBCs in blood,[4],> 98%
B1,Kd,human FcγRIIA [5],1.3 nM
B2,Kd,human FcγRIIA [5],0.9 nM
B3,Kd,human FcγRIIA [6],11 nM
same,Kd,human FcγRIIA [7],1 nM
same,Kd,human FcγRIIA [8],0.27 nM
